Values joined by “and” are separate entries in the source; they are usually repeats but may differ in a detail not shown here. Equal values may be shown once. Values belong to the molecule of their own block, whether it stands above or below them.
Key:
[1] = target: C47S mutant N-terminal 6xHis-tagged human peroxiredoxin-5 (human); test: SEC-MALS; 50 µL loaded on Superdex 200 Increase 10/300 GL (and Superdex 75 Increase, data not shown), PBS running buffer pH 7.4; Zimm fit
[2] = target: TLR4-YFP stably expressed on HEK293 MD2-CD14 cells (UniProt O00206); test: flow cytometry on cells; living HEK293 MD2-CD14 TLR4 cells exposed to 1 µM of the PRDX5 redox forms or increasing dsPRDX5 in DMEM, 40 min on ice; detected with anti-PRDX5 serum and Alexa Fluor 647 Plus secondary antibody; MFI of untreated cells subtracted
[3] = target: recombinant human TLR4 (R&D Systems) (human) (UniProt O00206); test: AFM single-molecule force spectroscopy; PRDX5 grafted on the AFM tip by a PEG24 linker, TLR4 covalently attached to an alkanethiol SAM on gold (NHS/EDC); PBS, ~25 °C; retraction speeds 100 nm/s to 10 µm/s; Bell-Evans fit
[4] = target: TLR4-YFP stably expressed on HEK293 MD2-CD14 cells (UniProt O00206)
[5] = target: TLR4-YFP stably expressed on HEK293 MD2-CD14 cells (UniProt O00206 24-839); test: cell-based or functional assay
[6] = target: the molecule itself; test: SEC-MALS; 50 µL loaded on Superdex 200 Increase 10/300 GL (and Superdex 75 Increase, data not shown), PBS running buffer pH 7.4; Zimm fit

Chain of recombinant human TLR4 (R&D Systems) (human) (O00206 24-631): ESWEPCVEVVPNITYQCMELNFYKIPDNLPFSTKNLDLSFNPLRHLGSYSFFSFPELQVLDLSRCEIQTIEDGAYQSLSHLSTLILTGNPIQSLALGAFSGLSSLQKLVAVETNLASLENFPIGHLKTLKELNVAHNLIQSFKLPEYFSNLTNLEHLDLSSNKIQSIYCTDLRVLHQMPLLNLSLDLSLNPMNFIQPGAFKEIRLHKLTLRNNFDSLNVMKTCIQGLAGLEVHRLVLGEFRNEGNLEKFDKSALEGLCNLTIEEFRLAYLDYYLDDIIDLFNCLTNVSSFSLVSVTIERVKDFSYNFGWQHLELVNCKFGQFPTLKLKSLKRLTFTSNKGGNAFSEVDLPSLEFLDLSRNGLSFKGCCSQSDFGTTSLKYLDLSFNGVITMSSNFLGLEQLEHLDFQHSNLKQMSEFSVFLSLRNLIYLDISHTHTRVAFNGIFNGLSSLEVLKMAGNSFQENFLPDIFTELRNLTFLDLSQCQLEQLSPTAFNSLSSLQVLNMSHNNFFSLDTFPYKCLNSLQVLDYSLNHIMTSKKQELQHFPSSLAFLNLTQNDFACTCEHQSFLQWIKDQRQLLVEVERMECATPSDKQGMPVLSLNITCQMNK
Chain of TLR4-YFP stably expressed on HEK293 MD2-CD14 cells (UniProt O00206 24-839) (O00206 24-839): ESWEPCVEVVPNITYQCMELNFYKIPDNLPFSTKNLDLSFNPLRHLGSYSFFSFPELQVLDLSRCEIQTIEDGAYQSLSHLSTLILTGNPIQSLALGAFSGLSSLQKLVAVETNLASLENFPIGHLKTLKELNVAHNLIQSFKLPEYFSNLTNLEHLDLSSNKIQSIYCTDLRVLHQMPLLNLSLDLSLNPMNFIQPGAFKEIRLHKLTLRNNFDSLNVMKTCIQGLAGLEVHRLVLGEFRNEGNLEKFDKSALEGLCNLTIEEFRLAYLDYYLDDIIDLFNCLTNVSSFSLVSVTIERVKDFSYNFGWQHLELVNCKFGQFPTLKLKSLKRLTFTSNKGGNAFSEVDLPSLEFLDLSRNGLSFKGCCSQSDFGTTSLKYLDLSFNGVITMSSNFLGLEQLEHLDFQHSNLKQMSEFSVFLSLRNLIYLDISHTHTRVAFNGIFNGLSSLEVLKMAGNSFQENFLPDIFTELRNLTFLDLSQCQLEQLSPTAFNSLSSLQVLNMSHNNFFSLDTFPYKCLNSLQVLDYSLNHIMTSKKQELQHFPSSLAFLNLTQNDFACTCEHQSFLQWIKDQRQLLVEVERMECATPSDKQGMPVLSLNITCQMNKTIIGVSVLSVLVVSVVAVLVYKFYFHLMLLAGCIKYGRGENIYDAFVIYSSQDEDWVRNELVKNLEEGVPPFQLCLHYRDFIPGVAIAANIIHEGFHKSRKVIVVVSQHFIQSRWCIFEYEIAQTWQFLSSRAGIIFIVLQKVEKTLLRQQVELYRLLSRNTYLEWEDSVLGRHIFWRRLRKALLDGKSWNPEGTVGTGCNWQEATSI
Chain of TLR4-YFP stably expressed on HEK293 MD2-CD14 cells (UniProt O00206) (O00206 24-839): as above

Molecule: C47S mutant N-terminal 6xHis-tagged human peroxiredoxin-5 (enzyme)
stoichiometry N [1]: 2 and 4 | fold decrease in binding propensity compared to dsPRDX5 [2]: 3 fold | koff [3]: 1.97 s⁻¹ | IL-8 secretion from HEK293 MD2-CD14 TLR4 cells, 2 µM protein, 16 h, ELISA [4]: 893 pg/mL

B1: chemically reduced and alkylated recombinant human peroxiredoxin-5 (enzyme)
chain: APIKVGDAIPAVEVFEGEPGNKVNLAELFKGKKGVLFGVPGAFTPGCSKTHLPGFVEQAEALKAKGVQVVACLSVNDAFVTGEWGRAHKAEGKVRLLADPTGAFGKETDLLLDDSLVSIFGNRRLKRFSMVVQDGIVKALNVEPDGTGLTCSLAPNIISQL
modifications: cysteine thiols alkylated with iodoacetamide (carbamidomethyl groups), more likely on the two Cys involved in the disulfide bond (C47, C151)
notes: human peroxiredoxin-5 (PRDX5), wild type, same construct as m1; Made from m1 by chemical treatment; Mainly a dimer by SEC-MALS; also called r/aPRDX5; reduced PRDX5; source: dsPRDX5 (E. coli M15, purified) treated with 10 mM DTT, then 55 mM iodoacetamide, ultra-filtered; not shown: His6, N-terminal, kept
koff [3]: 2.47 s⁻¹ | IL-8 secretion from HEK293 MD2-CD14 TLR4 cells, 2 µM protein, 16 h, ELISA [5]: 2440 pg/mL | stoichiometry N [6]: 2

B3: hyperoxidized recombinant human peroxiredoxin-5 (enzyme)
chain: B1 chain
modifications: Cys sulfinic (-SO2H) and/or sulfonic (-SO3H) acids; only partially hyperoxidized (~42% of species), a proportion of species keeps the disulfide bridge
notes: human peroxiredoxin-5 (PRDX5), wild type, same construct as m1; Made from m1 by chemical treatment; a mix of species; Mainly a dimer by SEC-MALS; also called s/sPRDX5; hyperoxidized PRDX5; source: dsPRDX5 (E. coli M15, purified) treated with 10 mM DTT, then 5 mM H2O2, ultra-filtered; not shown: His6, N-terminal, kept
IL-8 secretion from HEK293 MD2-CD14 TLR4 cells, 2 µM protein, 16 h, ELISA [5]: 1450 pg/mL | stoichiometry N [6]: 2 and 4

Second part, led by results:

koff [3]: 1.02 s⁻¹
Molecule: recombinant wild-type N-terminal 6xHis-tagged human peroxiredoxin-5, disulfide (oxidized) form (from UniProt P30044 54-214)

IL-8 secretion from HEK293 MD2-CD14 TLR4 cells, 2 µM protein, 16 h, ELISA [5]: 4610 pg/mL
B2: recombinant wild-type N-terminal 6xHis-tagged human peroxiredoxin-5, disulfide (oxidized) form (enzyme)
chain: B1 chain
modifications: disulfide bridge between C47 and C151
notes: human peroxiredoxin-5 (PRDX5), wild type; calculated mass with reduced thiols 18,297.81 Da; Mainly a dimer by SEC-MALS, with ~30% monomers; also called dsPRDX5; PRDX5; source: E. coli M15 (pRep4), pQE-30, purified (Ni-NTA), dialyzed against PBS; not shown: His6, N-terminal, kept
stoichiometry N [6]: 2

Source: PMC8750366, “Role of the Redox State of Human Peroxiredoxin-5 on Its TLR4-Activating DAMP Function” (Antioxidants, 2021)
